According to publication PMC2788865 (The Journal of Biological Chemistry, 2009):

Biological target: Lys^75-FL-calmodulin (FL-CaM) (human, UniProt P0DP23 1-149, 5-(4,6-dichlorotriazinyl)aminofluorescein (FL) on Lys75)
Assay: fluorescence polarisation

binding result: binds
B1: Ca^2+/calmodulin-dependent protein kinase IV (CaMKIV) (enzyme)
chain: MLKVTVPSCPSSPCSSVTSSTENLVPDYWIDGSKRDPLSDFFEVESELGRGATSIVYRCKQKGTQKPYALKVLKKTVDKKIVRTEIGVLLRLSHPNIIKLKEIFETPTEISLVLELVTGGELFDRIVEKGYYSERDAADAVKQILEAVAYLHENGIVHRDLKPENLLYATPAPDAPLKIADFGLSKIVEHQVLMKTVCGTPGYCAPEILRGCAYGPEVDMWSVGIITYILLCGFEPFYDERGDQFMFRRILNCEYYFISPWWDEVSLNAKDLVKKLIVLDPKKRLTTFQALQHPWVTGKAANFVHMDTAQKKLQEFNARRKLKAAVKAVVASSRLGSASSSHTNIQESNKASSEAQPAQDGKDKTDPLENKMQAGDHEAAKAAADETMKLQSEEVEEEEGVKEEEEEEEEEEETSRMVPQEPEDRLETDDQEMKRNSEETLKSVEEEMDPKAEEEAAAVGLGVPPQQDAILPEY
